According to paper PMC2172679:

Target: p150^Glued subunit of dynactin (endogenous in melanophore extracts) (Xenopus laevis (endogenous in melanophores)) (UniProt Q6PCJ1)
Assay: co-IP

Sequence of UniProt Q6PCJ1 (Q6PCJ1 whole entry): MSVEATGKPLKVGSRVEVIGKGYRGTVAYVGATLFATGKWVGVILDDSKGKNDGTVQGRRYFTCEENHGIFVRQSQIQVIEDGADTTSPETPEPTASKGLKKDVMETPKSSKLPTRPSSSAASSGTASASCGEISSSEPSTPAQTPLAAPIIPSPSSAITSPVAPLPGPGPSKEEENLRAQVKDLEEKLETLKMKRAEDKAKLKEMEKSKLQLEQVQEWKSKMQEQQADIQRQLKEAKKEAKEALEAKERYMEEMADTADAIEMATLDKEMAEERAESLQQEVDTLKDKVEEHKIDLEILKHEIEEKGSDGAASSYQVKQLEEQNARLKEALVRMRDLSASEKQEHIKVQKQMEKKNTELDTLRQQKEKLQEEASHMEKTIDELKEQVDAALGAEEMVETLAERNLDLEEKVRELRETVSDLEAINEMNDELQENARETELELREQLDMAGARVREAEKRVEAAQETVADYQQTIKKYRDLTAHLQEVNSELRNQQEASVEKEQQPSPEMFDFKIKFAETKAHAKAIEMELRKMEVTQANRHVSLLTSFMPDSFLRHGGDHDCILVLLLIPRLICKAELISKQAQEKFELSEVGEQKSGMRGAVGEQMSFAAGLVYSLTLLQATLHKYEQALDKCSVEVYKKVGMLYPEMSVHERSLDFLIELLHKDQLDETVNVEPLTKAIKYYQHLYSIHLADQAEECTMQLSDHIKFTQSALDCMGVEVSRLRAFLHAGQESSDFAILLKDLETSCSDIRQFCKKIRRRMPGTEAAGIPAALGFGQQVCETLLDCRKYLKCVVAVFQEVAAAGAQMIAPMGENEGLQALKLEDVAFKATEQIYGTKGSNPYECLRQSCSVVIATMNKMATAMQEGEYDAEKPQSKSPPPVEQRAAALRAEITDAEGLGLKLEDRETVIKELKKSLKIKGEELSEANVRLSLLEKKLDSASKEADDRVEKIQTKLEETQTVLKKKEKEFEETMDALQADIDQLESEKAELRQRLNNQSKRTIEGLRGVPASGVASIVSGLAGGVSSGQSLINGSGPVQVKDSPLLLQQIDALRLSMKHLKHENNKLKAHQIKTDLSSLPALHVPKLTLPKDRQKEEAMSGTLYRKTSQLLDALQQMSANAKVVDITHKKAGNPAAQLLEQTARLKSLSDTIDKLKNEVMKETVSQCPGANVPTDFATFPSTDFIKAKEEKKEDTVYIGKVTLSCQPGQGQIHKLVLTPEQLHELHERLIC

percent of the total pool co-precipitated: 1%
Substance: kinesin II (Xenopus, endogenous in melanophore extracts) (complex)
